Results from patent publication US20240010695A1.

Tests used:
Test in all cases: polyreactivity ELISA, antigen coated, 10 ug/mL binder
[1] = biological target: human serum albumin (human) (UniProt P02768)
insulin = biological target: insulin
[2] = biological target: keyhole limpet hemocyanin

absorbance at 450 nm normalized against the no-antigen control [1]: 16.6 | absorbance at 450 nm normalized against the no-antigen control (insulin): 21.4 | absorbance at 450 nm normalized against the no-antigen control [2]: 38.8
Substance: Bococizumab (antibody)
